The target in one data set is PARP1 full-length (human, UniProt P09874 2-1014, V762A). The data set is described as follows: NMR; 35.5 uM protein, 40 uM DNA; 15N-1H TROSY, 25 C; EMSA: 20 mM HEPES-KOH pH 7.6, 5 mM MgCl2, 1 mM DTT, 20% glycerol, 1 h room temperature, 6% native PAGE; NMR: 10 mM sodium phosphate, 222 mM NaCl, 2.7 mM KCl, 2. The settings on record: protein: recombinant; tags: N-terminal His6 (MKHHHHHHKMQ); dumbbell: two hairpins, mimics single-strand break.

The target in a further data set is T1, PARP14 WWE-ART (human, UniProt Q460N5 1459-1801).
T1 sequence: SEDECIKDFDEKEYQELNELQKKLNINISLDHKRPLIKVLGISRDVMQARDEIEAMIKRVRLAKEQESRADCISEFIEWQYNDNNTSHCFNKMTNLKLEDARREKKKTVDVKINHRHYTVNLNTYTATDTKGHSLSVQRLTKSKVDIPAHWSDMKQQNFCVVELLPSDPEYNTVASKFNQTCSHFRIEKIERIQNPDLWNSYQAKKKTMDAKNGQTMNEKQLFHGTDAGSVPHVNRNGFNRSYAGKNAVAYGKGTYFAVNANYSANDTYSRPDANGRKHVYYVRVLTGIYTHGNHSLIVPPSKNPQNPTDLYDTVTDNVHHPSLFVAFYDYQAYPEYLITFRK
The data set is described as follows: EMSA; 0.5 uM RNA, 1-5 uM protein, 5 mM Mg2+; EMSA: 20 mM HEPES-KOH pH 7.6, 5 mM MgCl2, 1 mM DTT, 20% glycerol, 1 h room temperature, 6% native PAGE; NMR: 10 mM sodium phosphate, 222 mM NaCl, 2.7 mM KCl, 2. The settings on record: protein: recombinant; label: 5' Cy3; single strand. In general terms: Mobility shift assays separate free from complexed probe on a gel.

The target in a further data set is T2, PARP14 KH1-KH2 (human, UniProt Q460N5 316-468).
T2 sequence: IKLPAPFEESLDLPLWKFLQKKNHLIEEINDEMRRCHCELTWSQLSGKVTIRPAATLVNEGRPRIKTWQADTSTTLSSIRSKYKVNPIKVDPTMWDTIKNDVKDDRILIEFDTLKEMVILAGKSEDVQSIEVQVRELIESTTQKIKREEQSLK
The data set is described as follows: EMSA; 0.5 uM RNA, 1-5 uM protein, 5 mM Mg2+; efficient binding at micromolar concentrations; EMSA: 20 mM HEPES-KOH pH 7.6, 5 mM MgCl2, 1 mM DTT, 20% glycerol, 1 h room temperature, 6% native PAGE; NMR: 10 mM sodium phosphate, 222 mM NaCl, 2.7 mM KCl, 2. The conditions noted are these: protein: recombinant; label: 5' Cy3; single strand.

In a further data set the target is T3, PARP14 KH8-WWE-ART (human, UniProt Q460N5 1453-1801).
T3 sequence: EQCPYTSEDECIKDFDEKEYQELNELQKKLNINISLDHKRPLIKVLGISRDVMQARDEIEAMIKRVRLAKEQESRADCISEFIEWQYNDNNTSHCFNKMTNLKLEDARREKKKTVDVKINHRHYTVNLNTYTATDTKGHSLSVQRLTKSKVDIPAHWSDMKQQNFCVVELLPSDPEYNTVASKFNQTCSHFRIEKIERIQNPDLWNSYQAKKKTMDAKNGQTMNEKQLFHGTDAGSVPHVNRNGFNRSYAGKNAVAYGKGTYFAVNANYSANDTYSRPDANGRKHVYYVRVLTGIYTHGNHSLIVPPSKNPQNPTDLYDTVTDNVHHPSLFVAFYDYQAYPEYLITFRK
Description: EMSA; 0.5 uM RNA, 1-5 uM protein, 5 mM Mg2+; possible slight nuclease contamination; EMSA: 20 mM HEPES-KOH pH 7.6, 5 mM MgCl2, 1 mM DTT, 20% glycerol, 1 h room temperature, 6% native PAGE; NMR: 10 mM sodium phosphate, 222 mM NaCl, 2.7 mM KCl, 2. The settings on record: protein: recombinant; label: 5' Cy3; single strand.

Chain of PARP1 full-length (P09874 2-1014 V762A): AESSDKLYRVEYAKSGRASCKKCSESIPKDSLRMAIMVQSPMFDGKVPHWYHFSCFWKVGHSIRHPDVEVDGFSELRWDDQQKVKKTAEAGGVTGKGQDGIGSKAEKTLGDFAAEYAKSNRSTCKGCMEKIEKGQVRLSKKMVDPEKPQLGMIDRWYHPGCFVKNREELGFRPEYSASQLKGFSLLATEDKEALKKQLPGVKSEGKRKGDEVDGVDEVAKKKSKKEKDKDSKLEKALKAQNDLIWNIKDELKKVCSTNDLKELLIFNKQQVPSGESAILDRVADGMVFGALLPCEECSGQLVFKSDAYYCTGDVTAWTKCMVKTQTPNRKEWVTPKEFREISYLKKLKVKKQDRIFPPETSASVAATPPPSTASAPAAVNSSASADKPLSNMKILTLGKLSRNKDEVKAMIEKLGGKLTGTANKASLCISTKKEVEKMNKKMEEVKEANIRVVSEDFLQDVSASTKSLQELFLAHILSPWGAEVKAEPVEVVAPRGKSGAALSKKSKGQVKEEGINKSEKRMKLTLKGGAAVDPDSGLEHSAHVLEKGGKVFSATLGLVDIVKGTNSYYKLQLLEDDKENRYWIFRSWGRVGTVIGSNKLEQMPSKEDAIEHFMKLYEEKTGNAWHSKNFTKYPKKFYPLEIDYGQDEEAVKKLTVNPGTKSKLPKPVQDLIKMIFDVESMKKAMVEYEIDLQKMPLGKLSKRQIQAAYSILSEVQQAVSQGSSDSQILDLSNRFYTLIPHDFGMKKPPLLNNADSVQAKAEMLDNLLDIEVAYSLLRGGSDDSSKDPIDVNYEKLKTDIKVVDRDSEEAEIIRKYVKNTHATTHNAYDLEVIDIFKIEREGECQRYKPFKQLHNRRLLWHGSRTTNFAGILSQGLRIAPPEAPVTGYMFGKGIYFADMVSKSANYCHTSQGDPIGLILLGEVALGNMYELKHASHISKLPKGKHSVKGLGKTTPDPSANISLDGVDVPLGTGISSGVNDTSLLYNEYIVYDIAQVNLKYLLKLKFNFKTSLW

Turning to GCTGGCTTCGTAAGAAGCCAGCTCGCGGTCAGCTTGCTGACCGCG (structured_DNA, 5' phosphate) [45-nt DNA dumbbell], the binding result with PARP1 full-length is listed as “binds”.

For GUGGCGCGGAGACUUAGAGAA (ssRNA) [E21 RNA], the binding result with PARP14 WWE-ART is reported as “no binding”; in the data set with PARP14 KH1-KH2, “binds”; in the data set with PARP14 KH8-WWE-ART, “binds”.

Source of the values: PMC10450202, “Updated protein domain annotation of the PARP protein family sheds new light on biological function”.
